Data as given in patent publication US20220119450A1 (UNIVERSITY OF TARTU, published 2022).
No end group written: not given here.

Columns and labels:
[1] = biological target: T1, recombinant His-tagged tenascin-C C domain (TNC-C); assay: binding specificity, T7 peptide phage
T1 construct: 112 amino acids, expressed in E. coli from pET28a+ with N-terminal His-tag
T1 chain: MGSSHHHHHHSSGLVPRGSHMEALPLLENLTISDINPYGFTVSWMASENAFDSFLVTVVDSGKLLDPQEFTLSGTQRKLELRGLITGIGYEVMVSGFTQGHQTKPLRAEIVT
Procedure: (§1) To identify bispecific peptides that interact with both TNC-C and FN-EDB, cross screens were performed on both targets. During the first round of selection, microtiter plates coated with 20 μg/ml recombinant purified TNC-C were blocked with PBS containing 1% bovine serum albumin (BSA), followed by incubation with 5×10⁸ pfu of phages in PBS at 4° C. overnight, by washes to remove background, and by phage rescue and amplification in BLT5403 strain of E. coli (Novagen, EMD Biosciences, MA, USA) (Teesalu et al., Methods Enzymol. 503:35-56 (2012)). The following rounds of biopanning were carried on Ni-NTA Magnetic Agarose Beads (QIAGEN, Hilden, Germany) coated with hexahistidine-tagged FN-EDB (3 μg/μl beads) at room temperature. After 5 rounds of selection, a set of random clones was sequenced, and individual peptide-phage clones and control (G7 peptide-displaying or insertless) phages were incubated with FN-EDB and TNC-C-coated magnetic beads. RPARPAR phage (SEQ ID NO:5) and His-tagged NRP-1 b1b2 domain were used as positive control (Teesalu et al., Proc. Natl. Acad. Sci. U.S.A 106:16157-62 (2009)). To address the specificity of the peptide phage binding to the FN-EDB and TNC-C, the protein-coated beads were pre-incubated with 20 μg/ml blocking rabbit polyclonal antibodies.
(§2) Immobilized FAM-PL1 was probed with recombinant His-tagged EDB and TNC-C (or control BSA), followed by sequential incubation with rabbit anti-His-tag primary antibody, secondary goat anti-rabbit HRP antibody and a chromogenic peroxidase reaction.

[2] = biological target: T2, recombinant His-tagged fibronectin extra domain B (FN-EDB); assay: binding specificity, T7 peptide phage
T2 construct: 112 amino acids, expressed in E. coli from pET28a+ with N-terminal His-tag; also called fibronectin EDB-domain
Procedure: as §1, §2

[3] = biological target: T3, recombinant His-tagged Neuropilin-1 b1b2 domain (UniProt O14786 273-586, limits assumed); assay: T7 phage binding to protein-coated magnetic beads
T3 construct: domain: b1b2; also called NRP-1; NRP1
T3 sequence (looked up): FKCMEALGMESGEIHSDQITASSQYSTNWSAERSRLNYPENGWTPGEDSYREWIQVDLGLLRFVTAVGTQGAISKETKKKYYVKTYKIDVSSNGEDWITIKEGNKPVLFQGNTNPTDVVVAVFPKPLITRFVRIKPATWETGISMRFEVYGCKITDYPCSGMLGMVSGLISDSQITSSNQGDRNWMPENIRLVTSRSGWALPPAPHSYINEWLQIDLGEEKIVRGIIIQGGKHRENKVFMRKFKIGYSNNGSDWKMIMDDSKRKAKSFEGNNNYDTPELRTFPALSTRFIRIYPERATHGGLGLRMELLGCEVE

[4] = biological target: T1, recombinant His-tagged tenascin-C C …; assay: T7 phage binding to recombinant protein
[5] = biological target: T2, recombinant His-tagged fibronectin …; assay: T7 phage binding to recombinant protein
[6] = biological target: T3, recombinant His-tagged Neuropilin-1 …; assay: T7 phage binding to recombinant NRP-1 b1b2

Row | Binder | binding result [1] | binding result [2] | binding result [3] | binding result [4] | binding result [5] | fold more than heptaglycine control phage [6] [fold]
1 | PPRRGLIKLKTS (not fully specified (N-terminus); also: displayed on T7 phage capsid protein, also called PL1 phage) [PL1 peptide displayed on T7 phage (PPRRGLIKLKTS)] | binds | binds | no binding | – | – | –
2 | AGRGRLVR (also: displayed on T7 phage, fusion site not given here, also called PL3 phage; PL-3 phage) [PL3 peptide displayed on T7 phage (AGRGRLVR)] | – | – | – | binds | no binding | ~200
